Measured values from patent US6743893B2, “Receptor-mediated uptake of peptides that bind the human transferrin receptor” (The UAB Research Foundation, priority 2000, dated 2004).

Key:
[1] = target: T1, human transferrin receptor (hTfR) (Homo sapiens, UniProt P02786); assay: Competition studies of phage binding to CEF+hTfR cells; settings: competitor added prior to phage, 1 hour at 4° C.
T1 construct: expressed in transfected cells; host or cells: chicken embryo fibroblasts (CEF+hTfR), stably transduced with a retroviral vector
T1 sequence (P02786 whole entry): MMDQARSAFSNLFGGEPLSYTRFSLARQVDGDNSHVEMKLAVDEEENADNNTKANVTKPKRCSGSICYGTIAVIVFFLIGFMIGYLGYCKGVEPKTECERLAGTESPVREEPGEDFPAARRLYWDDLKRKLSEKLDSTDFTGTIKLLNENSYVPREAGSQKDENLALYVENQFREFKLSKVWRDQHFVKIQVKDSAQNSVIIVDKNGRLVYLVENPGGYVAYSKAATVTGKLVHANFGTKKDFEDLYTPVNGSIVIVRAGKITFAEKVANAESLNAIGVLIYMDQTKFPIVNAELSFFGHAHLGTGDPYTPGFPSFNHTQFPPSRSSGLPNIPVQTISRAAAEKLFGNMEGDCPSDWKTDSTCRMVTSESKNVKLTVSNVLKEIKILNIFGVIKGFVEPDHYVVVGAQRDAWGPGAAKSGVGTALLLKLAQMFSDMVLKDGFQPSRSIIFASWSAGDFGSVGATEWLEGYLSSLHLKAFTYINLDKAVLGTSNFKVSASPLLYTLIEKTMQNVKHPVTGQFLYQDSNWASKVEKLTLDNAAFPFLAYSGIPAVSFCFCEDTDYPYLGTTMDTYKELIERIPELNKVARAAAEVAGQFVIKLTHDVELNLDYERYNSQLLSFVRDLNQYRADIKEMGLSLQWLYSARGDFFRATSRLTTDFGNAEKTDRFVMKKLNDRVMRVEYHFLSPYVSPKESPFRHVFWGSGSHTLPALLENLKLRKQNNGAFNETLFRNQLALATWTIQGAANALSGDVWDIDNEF
Description: Binding and Competition Studies: Purified phage populations were amplified and were verified to be homogenous through DNA sequencing. Cells were prepared for binding as was described for biopanning procedures. Preparations of plaque-purified and titered phage (1×10^11) were incubated in serum-free Opti-MEM on either CEF or CEF+hTfR cells at 4° C. for 1 hour. The cells were washed repeatedly with Opti-HEM and bound phage were eluted with low pH buffer and subsequently titered. In competition studies, holo-transferrin (Calbiochem, La Jolla, Calif.) or synthesized peptides were added to CEF+hTfR cells prior to addition of the phage for 1 hour at 4° C. Multiple trials were completed and average titers and standard deviations determined. The titers determined on CEF+hTfR cells were divided by the titers determined on CEF cells and multiplied by 100 to yield fold over control data points.
Due to a synthesis error, a peptide with the sequence HAIYPNH (Seq. ID No. 14) was also synthesized.

CEF+hTfR cells = assay: Immunofluorescence binding and internalization on CEF+hTfR cells; assay type: cell-based, chicken; settings: for endocytosis into CEF+hTfR cells (fluorescence after low pH buffer wash): 37° C., low pH buffer wash before fixation
Description: Immunofluorescence: CEF+hTfR cells were grown on glass coverslips to 50% to 75% confluence. The coverslips were washed and incubated in serum-free Opti-MEM media at 37° C. for 1 hour. […] Cells were washed with Opti-MEM, then fixed in 3% formaldehyde for 30 minutes at 4° C. Alternatively, the cells were acid-washed with 0.2 M glycine-HCl, Ph 2.2, prior to fixation. A GFP monoclonal antibody (Clontech) was used in conjunction with an Oregon-Green Goat Anti-Mouse (Molecular Probes) to augment GFP fluorescence. All slides were counterstained with DAPI (2(4Amidinophenyl)-6indole carbamidinedihydrochioride) (Sigma). The microscopic slides were mounted in Prolong™ antifade medium (Molecular Probes). Images were captured on an AX70 microscope with Olympus Camera (Olympus, Melville, N.Y.) and analyzed with ESPRIT software (Life Science Resources, Cambridge, England). Final figures were assembled using Microsoft Power Point (Microsoft Corp., Redmond, Wash.).
To evaluate the sufficiency of capacity of the peptides to mediate uptake of carrier protein, GFP fusion proteins were prepared. Immunofluorescence was used to determine if the GFP-peptides fusion constructs were internalized using the following assay. GFP-peptide constructs were cloned with a C-terminal peptide addition of either HAIYPRH (Seq. ID No. 1) (GFP-HAIYPRH) or […] (Seq. ID No. 2) (GFP-[…]). These constructs were expressed and purified to greater than 95% by Coomassie staining. Purified proteins were applied to CEF+hTfR cells at 4° C. (which prevents endocytosis) or at 37° C. […] This acid wash determined whether the protein was endocytosed by removing proteins bound at the cell surface. […]
Immunofluorescence images of the localization of various proteins applied to CEF+hTfR cells at either 4° C. or 37° were studied. […] The total fluorescence shown could result from both cell surface and endocytosed proteins.
The cells that had undergone a low pH buffer wash to enable identification of proteins that had been endocytosed were evaluated.

CEF cells = assay: Immunofluorescence binding assays on CEF cells; assay type: cell-based, chicken; settings: 4° C. or 37° C., CEF cells lack the hTfR
[2] = target: T1, human transferrin receptor (hTfR); assay: Scatchard analysis of 125I-labelled protein binding to CEF+hTfR cells; settings: CEF+hTfR cells on ice, 1 hour, read-out: binding affinity (Scatchard)
Description: 1M NaOH was added to lyse the cells for determining the bound fraction. Both unbound and bound fractions were counted in a gamma counter and binding affinities were determined using Scatchard analysis.
Serial dilutions of labelled proteins were incubated with CEF+hTfR cells on ice in PBS-0.1% BSA in duplicate wells. After 1 hour, the unbound fraction was removed and cells were washed four times. Cells were removed from the well with 1N NaOH. The unbound and bound fractions were counted in a gamma counter and fmoles of bound and unbound were calculated. Scatchard plots were derived by plotting bound versus bound/free of an average value generated by the duplicate wells. A best of fit line was generated using the Excel program (Microsoft Corp.) and the binding affinities were determined by the slope of the plotted lines.

Substance: THRPPMWSPVWP
- competition of HAIYPRH phage binding to CEF+hTfR cells by added peptide or Tf [1]: failed to significantly compete

Substance: Texas-Red Tf: Tf conjugated to the Texas-Red fluorochrome, positive control
- endocytosis into CEF+hTfR cells (fluorescence after low pH buffer wash) (CEF+hTfR cells): readily endocytosed

Substance: Tf: transferrin from human serum, native ligand of hTfR
- binding or internalization on CEF cells (CEF cells): neither of the GFP fusion proteins or transferrin bound or internalized

Substance: PWRPSHPVWMPT
- competition of THRPPMWSPVWP phage binding to CEF+hTfR cells by added peptide or Tf [1]: not by the scrambled 12-mer sequence

Substance: HAIYPNH [peptide synthesized due to a synthesis error, asparagine in place of arginine]
- competition of HAIYPRH phage binding to CEF+hTfR cells by added peptide or Tf [1]: no effect

Substance: wtGFP: purified wild-type green fluorescent protein, negative control
- Kd [2]: 240 µM
- localization/binding of protein on CEF+hTfR cells without acid wash (CEF+hTfR cells; 37° C. for one hour, no acid wash): minimal binding
- endocytosis into CEF+hTfR cells (fluorescence after low pH buffer wash) (CEF+hTfR cells): unable to be endocytosed

Substance: HAIYPRH
- competition of HAIYPRH phage binding to CEF+hTfR cells by added peptide or Tf [1]: competed away to background levels
- competition of THRPPMWSPVWP phage binding to CEF+hTfR cells by added peptide or Tf [1]: failed to significantly compete
